The values below come from article PMC7786401.

In assay [1] the target is angiotensin II type 1 receptor A244S (human) (UniProt P30556).
The target in assay [2] is angiotensin II type 1 receptor I103T (human) (UniProt P30556).
Assay [3] has as its target angiotensin II type 1 receptor I103T-A244S (human) (UniProt P30556).
In assay [4] the target is angiotensin II type 1 receptor, wild type (human) (UniProt P30556).

Chain of βarrestin2-RlucII (P32121 whole entry): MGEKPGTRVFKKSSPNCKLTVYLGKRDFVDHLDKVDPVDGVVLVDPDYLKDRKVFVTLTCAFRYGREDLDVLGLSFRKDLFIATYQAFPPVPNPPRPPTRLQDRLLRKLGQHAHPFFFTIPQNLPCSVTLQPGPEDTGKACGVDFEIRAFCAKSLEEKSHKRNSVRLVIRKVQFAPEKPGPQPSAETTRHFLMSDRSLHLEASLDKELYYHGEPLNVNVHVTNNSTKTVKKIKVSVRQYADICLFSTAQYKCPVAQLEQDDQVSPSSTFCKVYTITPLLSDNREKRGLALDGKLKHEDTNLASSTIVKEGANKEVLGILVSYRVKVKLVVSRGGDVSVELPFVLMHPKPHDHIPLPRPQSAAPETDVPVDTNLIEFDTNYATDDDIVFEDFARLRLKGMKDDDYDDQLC

In the case of “βarrestin2-RlucII (from UniProt P32121 1-409) (natural protein)”, the results for the AngII-stimulated β-arrestin 2 recruitment to the membrane (BRET2 between βarrestin2-RlucII and rGFP-CaaX), Emax (% WT) in assay [1], in assay [2] and in assay [3] were 106 % WT, 97 % WT and 50 % WT, respectively. Also, the AngII-stimulated β-arrestin 2 recruitment to the membrane (BRET2 between βarrestin2-RlucII and rGFP-CaaX), pEC50 of AngII in assay [1] was 8.68; in assay [2], 8.54; in assay [3], 8.5; in assay [4], 8.49.
